The record followed here is patent publication US11541107B2, “Peptides and T cells for use in immunotherapeutic treatment of various cancers” (Immatics Biotechnologies GmbH, priority 2015, dated 2023).

For the assay, the target named is HLA-A*02 (Homo sapiens, UniProt P04439, D140Y/D185E/D98H/E176V/E277Q/G131W/G231S/I119V/I121R/I166T/I218V/L300P/N151K/N90K/P208A/P217A/Q86G/Q94H/R138H/R169H). Description: MHC binding assay, UV-ligand exchange with beta2m ELISA, HLA-A*02. The settings on record: binding to HLA-A*02 ranged by peptide exchange yield (UV-ligand exchange, beta2m ELISA). The text has this: Candidate peptides for T cell based therapies according to the present invention were further tested for their MHC binding capacity (affinity). The individual peptide-MHC complexes were produced by UV-ligand exchange, where a UV-sensitive peptide is cleaved upon UV-irradiation, and exchanged with the peptide of interest as analyzed. Only peptide candidates that can effectively bind and stabilize the peptide-receptive MHC molecules prevent dissociation of the MHC complexes. To determine the yield of the exchange reaction, an ELISA was performed based on the detection of the light chain (ß2 m) of stabilized MHC complexes. The assay was performed as generally described in Rodenko et al. (Rodenko et al., 2006).
96 well MAXISorp plates (NUNC) were coated over night with 2 ug/ml streptavidin in PBS at room temperature, washed 4× and blocked for 1 h at 37° C. in 2% BSA containing blocking buffer. […] Peptide-MHC monomers of the UV-exchange reaction were diluted 100 fold in blocking buffer. Samples were incubated for 1 h at 37° C., washed four times, incubated with 2 ug/ml HRP conjugated anti-β2 m for 1h at 37° C., washed again and detected with TMB solution that is stopped with […]. Absorption was measured at 450 nm. Candidate peptides that show a high exchange yield (preferably higher than 50%, most preferred higher than 75%) are generally preferred for a generation and production of antibodies or fragments thereof, and/or T cell receptors or fragments thereof, as they show sufficient avidity to the MHC molecules and prevent dissociation of the MHC complexes.
In general terms: An ELISA detects its analyte on a solid surface through an enzyme-linked reagent.
For “328 (SVDSAPAAV; listed as Homo sapiens) [compound 328]”, the Peptide exchange result is reported as “++ (20%-49% = ++)”.

Turning to “45 (VLGPTPELV; listed as Homo sapiens) [compound 45]”, the Peptide exchange result is recorded as “+++ (50%-75% = +++)”.

On to “89 (YLVAHNLLL; listed as Homo sapiens) [compound 89]”, for which the Peptide exchange entry was “+++ (50%-75% = +++)”.

On to “32 (ILADEAFFSV; listed as Homo sapiens) [compound 32]”, for which the Peptide exchange entry is listed as “+++ (50%-75% = +++)”.

For “78 (LLWGHPRVA; listed as Homo sapiens) [compound 78]”, the Peptide exchange entry was “+++ (50%-75% = +++)”.

“330 (FLWPKEVEL; listed as Homo sapiens) [compound 330]”: the Peptide exchange result is “+++ (50%-75% = +++)”.

Take “25 (IQADDFRTL; listed as Homo sapiens) [compound 25]”: the Peptide exchange entry is listed as “++ (20%-49% = ++)”.

For “41 (FVLPLVVTL; listed as Homo sapiens) [compound 41]”, the Peptide exchange entry is “+++ (50%-75% = +++)”.

On to “56 (KILDLTRVL; listed as Homo sapiens) [compound 56]”, for which the Peptide exchange result was “++ (20%-49% = ++)”.

For the substance “10 (KTLDVFNIIL; listed as Homo sapiens) [compound 10]”, the Peptide exchange entry is given as “++ (20%-49% = ++)”.

Turning to “16 (HLYNNEEQV; listed as Homo sapiens) [compound 16]”, the Peptide exchange entry was “++ (20%-49% = ++)”.

For the substance “337 (KVLGKIEKV; listed as Homo sapiens) [compound 337]”, the Peptide exchange result was “+++ (50%-75% = +++)”.

Turning to “339 (VLGPGPPPL; listed as Homo sapiens) [compound 339]”, the Peptide exchange entry is listed as “++ (20%-49% = ++)”.

Regarding “76 (ILLDESNFNHFL; listed as Homo sapiens) [compound 76]”, the Peptide exchange entry was “+++ (50%-75% = +++)”.

With “39 (ALMAVVSGL; listed as Homo sapiens) [compound 39]”, the Peptide exchange entry was “+++ (50%-75% = +++)”.

As for “63 (TLSSERDFAL; listed as Homo sapiens) [compound 63]”, the Peptide exchange result is “+ (<20% = +)”.

As to “38 (KMQEDLVTL; listed as Homo sapiens) [compound 38]”, the Peptide exchange result is reported as “+++ (50%-75% = +++)”.

With “91 (SSLEPQIQPV; listed as Homo sapiens) [compound 91]”, the Peptide exchange entry is “+ (<20% = +)”.

With “329 (FAWEPSFRDQV; listed as Homo sapiens) [compound 329]”, the Peptide exchange result was “++ (20%-49% = ++)”.

For the substance “4 (ELAEIVFKV; listed as Homo sapiens) [compound 4]”, the Peptide exchange entry was “+++ (50%-75% = +++)”.

Take “57 (VLISSTVRL; listed as Homo sapiens) [compound 57]”: the Peptide exchange result was “++ (20%-49% = ++)”.

For “84 (FLEEEITRV; listed as Homo sapiens) [compound 84]”, the Peptide exchange result is recorded as “+++ (50%-75% = +++)”.

Consider “28 (TLYSMDLMKV; listed as Homo sapiens) [compound 28]”, for which the Peptide exchange result was “+++ (50%-75% = +++)”.

In the case of “60 (FLIDTSASM; listed as Homo sapiens) [compound 60]”, the Peptide exchange entry is recorded as “++ (20%-49% = ++)”.

Regarding “23 (AQTVVVIKA; listed as Homo sapiens) [compound 23]”, the Peptide exchange entry is on record as “+ (<20% = +)”.

For the substance “70 (GLFSQHFNL; listed as Homo sapiens) [compound 70]”, the Peptide exchange result is listed as “+++ (50%-75% = +++)”.

Regarding “79 (SLVPLQILL; listed as Homo sapiens) [compound 79]”, the Peptide exchange entry is “++++ (>=75% = ++++)”.

As to “75 (ILDNVKNLL; listed as Homo sapiens) [compound 75]”, the Peptide exchange result was “+++ (50%-75% = +++)”.

For “72 (GMIGFQVLL; listed as Homo sapiens) [compound 72]”, the Peptide exchange entry is “+++ (50%-75% = +++)”.

For “52 (ELLSSIFFL; listed as Homo sapiens) [compound 52]”, the Peptide exchange result was “+++ (50%-75% = +++)”.
